Source: a protein production outcome set (Wang et al. 2014)

Test: label from the status in PepcDB records
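Also: failed if final PepcDB status was selected cloned or expressed and not failed if soluble or beyond.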

Row | Sequence | protein production
1 | MFRSLNSYLIDFTGLVVISVLICLVSAGGSLASGLPFQIPASVLQLNTIFISILIEALPFVLIGVLIAGFIQIFVTEEHIRSLFPKNRFSGVIVSCLLGACFPACECGIVPIVRRLVSKGVPIYAGVGFLLTGPLINPIVVLSTYMAFGNDLRMAVLRVAVGFAAAVIIAFAISMMFRSSQLKTESRQTAAHCAHSGRRSPFSEKLFDMLKHAVDEFFDMGRFLIIGALVAALVQTYLPLKSLFVFGGGMLDSALVMMGLAYFLSLCSEADAFIGASFTNLFPSSSILAFLVYGPMLDLKNTVMMLHAFKPKFVICLSVLITVVVFVCIKVVSLL | failed
2 | MWFQLSSLRSILNVSTALRQVVVRTPWYAKRKSYKVLFWREITPLAIPIFLENTCVLLMGVLSTFLVSWLGKEAMAGVGLADSFNMVIMAFFAAIDLGTTVVVAFSLGKRDRRRARAAARQSLVIMTLFAVVLAVVIHYFGSEIINIVAGEATPEVKGLALTYLELTVLSYPAAAIALIGSGALRGAGNTKIPLMINGGMNILNIVISSILIYGAFSWQGLGFAGAGLGLTISRYIGAVAIIWVLMIGFNPALRIPLKSYLKPLNFGIIWEVMGIGIPASIESVLFNGGKLLTQMFVAGMGTNVIAGNFIAFSVAALINLPGNALGSASTIITGKRLGTGQIGQAERQLRHVFWMSTIVLTAIAWGTAPFAGLFASFYTQEQDVKEVVKVLLWLNAAFMPIWAAAWVLPSGFKGARDVRFAMWVSMLGMWGCRVVAGYTLGIVLGMGVVGVWLGMFLDWAVRGALFYWRLISGRWLWRYPRVKRE | failed
3 | NPQIREEVALDTQTGANPSAEELADGDIQAVAQAANERTGALFVVITDGLGIRLSHPDEERLGEQVSTSFEAAMRGEETMAWETGTLGASARAKVPIFAPDSSVPVGEVSVGFERDSVYSRLPMFLAA | failed
4 | MFDIGVNLTSSQFAKDRDDVVACAFDAGVNGLLITGTNLRESQQAQKLARQYSSCWSTAGVHPHDSSQWQAATEEAIIELAAQPEVVAIGECGLDFNRNFSTPEEQERAFVAQLRIAADLNMPVFMHCRDAHERFMTLLEPWLDKLPGAVLHCFTGTREEMQACVAHGIYIGITGWVCDERRGLELRELLPLIPAEKLLIETDAPYLLPRDLTPKPSSRRNEPAHLPHILQRIAHWRGEDAAWLAATTDANVKTLFGIAF | not failed
5 | NIILASRSLDKCYAIKESMLKKGLGEIGVEQVDADDTQALVALIQKYKPKVVINVALPYQDLTIMQACLETKTHYIDTANYEHPDLAKFEYKEQWAFDRAYKEVGILGVLGAGFDPGVTNAYVAHAQKHHFDTIHTLDILDCNAGDHKRPFATNFNPEINL | failed
6 | MSRRAGHNGRPLLEVPMLLRGLTWLVLFQLLGTGLNVLLLPMLPGPIIGLVLLFGYFLARGEVGKPVNEAAGSLLRYLPLLLVPAAVGVMAYAREIAADFWAIVGALVLSLLLSFLFAGWMMQKLIDRQQRRREES | failed
7 | MRPLAAILALPILEIALFVTIGGAIGLLATLLIIFGTAALGVFLLRRQGVEMQAALQMPRRMDPLALMADGAAVSLAAALLILPGFFTDTVGLLLLIPPVRRALIRRLGRNVQVRSTTWRGPVRDDAPIEADYHEVEPVRDPLAPPSQPPGSSGWTRH | failed
8 | MTMPRLASSRWWYIMPIVFVTYSLAYLDRANYGFAAASGMADDLRITPGLSSLLGALFFLGYFFFQVPGAIYAEKRSVKKLIFVSLILWGGLATLTGMVANVYLLIGIRFLLGVVEAAVMPAMLVYLCHWFTRAERSRANTFLILGNPVTILWMSVVSGYLVEHFSWRWMFIIEGLPAVIWAFIWWRLVDDRPRQAAWLSGSEKRDLEDALAAEQQGIKPVKNYREAFRSPKVIVLSLQYFCWSIGVYGFVLWLPSILKHGANIDIIEAGWLSALPYLAAVIAMLGVSWASDRLQKRKRFVWPPLLIASIAFYGSYALGSEHFWLSYALLVLAGACMYAPYGPFFAIVPEVLPANVAGGAMALINSMGALGSFSGSWLVGYLNGITGGPGASYLFMSGALLLSVLLTVFLNPHADKREPDAARAHASRRAAPAHP | failed
9 | LHYVHVGNKKSPNTLLFVHGSGCNLKIFGELEKYLEDYNCILLDLKGHGESKGQCPSTVYGYIDNVANFITNSEVTKHQKNITLIGYSMGGAIVLGVALKKLPNVRKVVSLSGGARFDKLDKDFMEKIYHNQLDNNYLLECIGGIDNPLSEKYFETLEKDPDIMINDLIACKLIDLVDNLKNIDIPVKAIVAKDELLTLVEYSEIIKKEVENSELKIFETGKHFLLVVNAKGVAEEIKNFI | failed
10 | MNGSLQTADRTPVDYVNPYIGNISHLLVPTFPTIQLPNSMLRVYPERADYTSELLKGLPLIVTNHRERSAFNFSPYQGEKLRPVITYNYDNEHITPYSFDVELDDNRMKAEYALSHQSAIYRITYEADKPAYLIVNSRNGSIHANENFISGRQQLNDNTNVYVYIEAQEKPLEHHHHHH | not failed
11 | MEDIYKLIDDINLQKIENLDSRVNEALSSNNDDALFILGETLYNFGLTPQGLEVFRTLYHKYPDESELLIYFIEGLMSENQTDEALEYLAQVEPSTEKLMLEADLYQQINMLEVAIDKLQEALDLEPNDPIIHFALAELLYYDGQYLRATREYETVLETGEYEVNGVNIFSRMADCSLQSGNYSDAISLFDEINEEEMNSEDYFKKSIAYEKNDLTQEAIKIMQTLLSKDPDFIQGYFYLQSLFENEKNYPDAIETGKEGLRLSQFYKELMVSTGSLEIEHGDANEGVELLKQALEVDNAYHEPLLILSDLYRNEEDYESIIQLLTYVDEEDLDPIFMWHLAYAYGQEERDKEAQHFFELAYPTLQTQVEFLSDYYFYLLEIGQKEKAILILNQLLEIDPSNENWHDESMRLQI | failed
12 | SSQWHHPRSGWGRRRDFSGRSSAKKKGGNHIPERWKDYLPVGQRMPGTRFIAFKVPLQKSFEKKLAPEECFSPLDLFNKIREQNEELGLIIDLTYTQRYYKPEDLPETVPYLKIFTVGHQVPDDETIFKFKHAVNGFLKENKDNDKLIGVHCTHGLNRTGYLICIYLIDVEGVRPDDAIELFNRCRGHCLERQNYIEDLQNGPIRKNWNSSVPRSSDFEDSAHLMQPVHNKPVKQGPRYNLHQIQGHSAPRHFHTQTQSLQQSVRKFSENPHVYQRHHLPPPGPPGEDYSHRRYSWNVKPNASRAAQDRRRWYPYNYSRLSYPACWEWTQ | not failed
13 | MIQALLQRYEKKIERRKLEKRTAFGAFAGRIGLVSNLFLFVSKFMIGLLSGSVSIMADAINSLSDTISSVLTLVGFYIAGKPADKEHPYGHERFEYISGMLVSLVITFIGFEFLTTSVDRILHPESIKVTPILFAVLALSIGIKIWQGLFYKKVSAKIDSQALVASAKDSFNDVYTTLAVLISAFIEGVTGLRIDGYIGFLIAAYIIYSGLQLIREFINELMGMRPSQTEIDEMKNVLSKMETIVGYHDLLIHNYGPSQTFASVHIEIDDRWDLNKAHQTIDAIEAKFKEELDVNLVCHIDPVNLYDPTQQFVHQTIKKIIRSFDASLKVHDIRLVTHGEEPKILFDLVLPTESKLSEFELGVEIQRQVYEKIGRYKVEITFDHTYLLQ | failed
14 | MSLARPLSFHEDRLFPSDPATRSYARGLYALVKDLPIISPHGHTDPSWFATNAPFQDATDLLLAPDHYLFRMLYSQGVSLDALKVRSKAGVPDTDPREAWRVFASHFYLFRGTPSWVWLNHVFSQVFGFTEFLEASNADDYFDRITAALATDAFRPRALFDRFNIETLATTEGPHESLQHHAAIRESGWGGHVITAYRPDAVIDFEDERSPRAFERFAETSGQDVYSWKSYLEAHRLRRQAFIDAGATSSDHGHPTAATADLSDVEAEALFNSLVKGDVTPEKAELFRAQMLTEMAKMSLDDGLVMQIHPGSHRNHNVGLLNSHGRDKGADIPMRTEYVDALKPLLTRLGNDPRLSIILFTLDETTYSRELAPLAGHYPVLKLGPSWWFHDSPEGMMRFREQVTETAGFYNTVGFNDDTRAFLSIPARHDVARRVDSAFLARMVAEHRMDLVEAEELIVDLTYNLPKKAYKLDQRPDWARPATLRAAAEEGHHHHHH | not failed
15 | ESPLYCVMAKADGPVQGLADLKGRKVGFSVAGIEEALLHTMLRTNGVEPAEVEFVNVNFALTPALASGQADAVAGAFRNFELHQIAAAGSEGRCFLPEENGVPSYEELIYVANPDRMDREKVVAFLKVTERAAGFIADHPEEAWEIFRG | failed
16 | MARSFSLAKNPLFWQVAIAGIILDQLSKLWVSQAMDPVGTTWPLWSGVFHFTYVLNTGAAFSAFRGGAGWLKWLSLAVSVGLIIFAGKVPLRKLEQLGYGCILAGAVGNGIDRFLFGHVIDFLDFRLINFPIFNLADVSINIGIAALLWASFFPVSSRKVD | failed
